# Test results reported in patent publication US7001748B2, “Methods of making polyketides using hybrid polyketide synthases” (The Board of Trustees of the Leland Stanford Junior …, priority 1999, dated 2006).
# Key:
# [1] = CD spectroscopy of the M3 N-terminal peptide; format: physicochemical
# Protocol: CD Spectroscopy. The CD spectrum of the M3 N-terminal peptide was recorded in a 1-mm path-length cell at a sample concentration of 100 μM in phosphate-buffered saline (PBS; 0.15 M KCl, 25 mM phosphate, pH 6.9). Measurements were made using an Aviv 62DS spectropolarimeter. Concentration was determined by tyrosine absorbance at 275 nm in 8 M guanidine hydrochloride.
# [2] = biological target: T1, M2 and M3+TE (Saccharopolyspora erythraea); test: Inhibition of tetraketide production by synthetic peptide, M2-M3 linker pair; format: biochemical; details: peptide 1 to 100 μM, 1.0 μM M2 and M3+TE
# T1 construct: Plasmid pBP19 contains module 2 of DEBS (M2) and is a derivative of pRSG64; made in house; host or cells: E. coli BL21(DE3) co-expressing B. subtilis sfp
# Protocol: (§1) Inhibition of Tetraketide Production. The ability of the synthetic peptide to inhibit the transfer reaction, and thus the production of tetraketide, was tested under the same reaction conditions described for the two module coincubations. The concentrations of M2 and M3+TE were both 1.0 μM, and the concentrations of M2(4) and (5)M3+TE were 0.5 and 1.0 μM, respectively. The only difference was the addition of the peptide at concentrations ranging from 1 to 100 μM to the assay containing M2 and M3+TE [or alternatively M2(4) and (5)M3+TE]. For greater accuracy, each inhibition assay was performed side by side with a control lacking inhibitor. The effect of the inhibitor was thus determined by dividing the inhibited rate by the control rate.
# M2(4) and (5)M3+TE = biological target: T2, M2(4) and (5)M3+TE (Saccharopolyspora erythraea, UniProt Q03131+Q03132); test: Inhibition of tetraketide production by synthetic peptide, M4-M5 linker pair; format: biochemical; details: peptide concentrations up to 100 μM
# T2 construct: Plasmid pST179 encodes a derivative of M2 containing the C-terminal linker of DEBS module 4 (M4); made in house; host or cells: E. coli BL21(DE3) co-expressing B. subtilis sfp
# Protocol: as §1
# [3] = biological target: T3, individually assayed modules, including M3+TE (Saccharopolyspora erythraea, UniProt Q03132+Q03133); test: Effect of synthetic peptide on individually assayed modules; format: biochemical
# T3 construct: encodes module 3 of DEBS (M3) with its own N-terminal linker and with the thioesterase fused to the C-terminus; natural N-terminal interpolypeptide linker of module 3 (start of DEBS2, ahead of the Module 3 feature); His6 (C); made in house; host or cells: E. coli BL21(DE3) co-expressing B. subtilis sfp
# Protocol: In Vitro Polyketide Production. Assays of individual modules contained 1.0 μM protein, 1-10 mM N-acetylcysteamine thioester of the “natural” (2S,3R)-2-methyl-3-hydroxypentanoic acid diketide (NDK) (1), 4 mM NADPH, 440 mM sodium phosphate, 1 mM EDTA, 2.5 mM dithiothreitol (DTT), and 20% w/v glycerol, pH 7.2, in 80 μL. Reactions with M2 or M2(4) included 0.3 mM ^14C-methylmalonyl-CoA (specific activity adjusted to 10.4 mCi/mmol), and those with M3+TE or (5)M3+TE included 0.5 mM ^14C-methylmalonyl-CoA (specific activity reduced to 1.1 mCi/mmol). [M2(4) refers to a derivative of M2 in which the C-terminal linker has been replaced with its counterpart from module 4, whereas (5)M3 refers to a derivative of M3 in which the N-terminal linker has been replaced with its counterpart from module 5 (see FIG. 4).] Both concentrations of methylmalonyl-CoA were saturating, but different concentrations were needed due to the disparate rates of turnover between the modules with and without the thioesterase. The reaction mixtures were preincubated to 30° C. and started with the addition of the methylmalonyl-CoA. […] Product formation was quantified by comparison with standards of the labeled methylmalonyl-CoA. […]
# (5)M3+TE = biological target: T4, (5)M3+TE (Saccharopolyspora erythraea, UniProt Q03132+Q03133); details: previously shown; cited from earlier work
# T4 construct: (5)M3+TE: module 3 with N-terminal linker from module 5; N-terminal interpolypeptide linker of DEBS module 5 (start of DEBS3, Q03133); His6 (C); made in house; host or cells: E. coli BL21(DE3) co-expressing B. subtilis sfp
# (3)M3+TE = biological target: T5, (3)M3+TE (Saccharopolyspora erythraea, UniProt Q03132+Q03133); details: previously shown; cited from earlier work
# T5 construct: encodes module 3 of DEBS (M3) with its own N-terminal linker and with the thioesterase fused to the C-terminus; natural N-terminal interpolypeptide linker of module 3 (start of DEBS2, ahead of the Module 3 feature); His6 (C); made in house; host or cells: E. coli BL21(DE3) co-expressing B. subtilis sfp
# module 5+TE = biological target: T6, module 5+TE (Saccharopolyspora erythraea, UniProt Q03133); details: diffusive loading, shown earlier; cited from earlier work
# T6 construct: a single module of the DEBS PKS fused to the thioesterase (TE) termination region of module 6; thioesterase (TE) domain of DEBS (end of the same DEBS3 polypeptide); made in house; host or cells: E. coli BL21(DE3) co-expressing B. subtilis sfp
# module 2+TE = biological target: T7, module 2+TE (Saccharopolyspora erythraea, UniProt Q03131+Q03133); details: diffusive loading, shown earlier; cited from earlier work
# T7 construct: a single module of the DEBS PKS fused to the thioesterase (TE) termination region of module 6; made in house; host or cells: E. coli BL21(DE3) co-expressing B. subtilis sfp
# [4] = test system: (5)M2+TE, (5)M5+TE, and (5)M6+TE; details: Wu et al. 2000; cited from earlier work
# module 6+TE = biological target: T8, module 6+TE (Saccharopolyspora erythraea, UniProt Q03133, DEL53-1503); details: diffusive loading, shown earlier; cited from earlier work
# T8 construct: a single module of the DEBS PKS fused to the thioesterase (TE) termination region of module 6; made in house; host or cells: E. coli BL21(DE3) co-expressing B. subtilis sfp
# [5] = test system: (5)M2+TE, (5)M5+TE, and (5)M6+TE; test: Diketide incorporation, statements made for all three modules together; format: biochemical; details: control studies, data not shown
# Protocol: Qualitative Substrate Incorporation Assays. The reaction buffer for the diketide incorporation assays contained 400 mM NaH2PO4 (pH 7.2), 2.5 mM DTT, 1 mM ETDA, 20% glyercol (reaction buffer C). 1 μM module, 20 μM acyl-ACP, 500 μMDL-[2-^14C]-methylmalonyl CoA (ARC), and 4 mM NADPH (Sigma) were incubated in 20 μL of the reaction buffer at 30° C. for 1.5 h. The reactions were either spotted directly onto a TLC plate (Whatman 250 μM silica gel, UV254), or first extracted with EtOAc followed by spotting of the organic extracts on a TLC plate. The TLC plates were resolved using 60% EtOAc in hexanes, and the radioactive products were visualized on a Packard InstantImager.
# Determination of kcat Values. […] To quench the reactions, 20 μL reaction aliquots were mixed with 80 μL of 12.5% SDS. kcat values for the acyl-ACP substrates were determined by measuring steady-state saturating rates at multiple substrate concentrations (varying from 40 to 90 μM 4). […]
# Qualitative Assays of Diketide Incorporation by Acyl-ACPs. […] 2000, 122, 4847-4852 (It should be noted that elongation of 4c and 4d by modules 5+TE and 6+TE yielded minor quantities of unreduced triketide lactones, indicating less efficient β-ketoreductase activity on these two anti-diketide substrates than on the two syn-diketide substrates.). […]
# [6] = listed as N-terminal linker of module 3
# [7] = listed as synthetic peptide mimic of the N-terminal linker of M3
compound,measurement,setting,value
H2N-MTDSEKVAEYLRRATLDLRAARQRIRELESD-amide (H-MTDSEKVAEYLRRATLDLRAARQRIRELESD-NH2) [M3 N-term],helical content,"[1]; 100 μM in PBS pH 6.9, listed as N-terminal linker peptide of M3",approximately 50%
same,helical content,"[1]; 100 μM in PBS pH 6.9, listed as peptide mimic",ca. 50%
same,inhibition of tetraketide lactone 2 formation,[2]; [6],could inhibit the formation of 2
same,inhibition of tetraketide lactone 2 formation,[2]; listed as peptide corresponding to the N-terminal linker of module 3,shown to inhibit the formation of tetraketide lactone 2
same,inhibition of tetraketide lactone 2 formation,[2]; [7],lowered the overall rate of tetraketide production in a dose-dependent fashion
same,inhibition of tetraketide lactone 2 formation,M2(4) and (5)M3+TE; [6],No inhibitory effect
same,inhibition of tetraketide lactone 2 formation,M2(4) and (5)M3+TE; [7],no such effect
same,inhibitory effect upon individually assayed modules,[3],no inhibitory effect
CCC(O)C(C)C(=O)SCCNC(C)=O (stereo not drawn) [2a],incorporation of NAC thioester (qualitative),(5)M3+TE,readily incorporated and elongated
same,incorporation of NAC thioester (qualitative),(3)M3+TE,readily incorporated and elongated
same,"kcat (elongation rate constant), NAC thioester substrate",module 5+TE,0.00417 s⁻¹
same,"kcat, NAC thioester substrate",module 2+TE,0.0767 s⁻¹
same,incorporation of NAC thioester (qualitative),[4],substrates for the three modules
same,"kcat, NAC thioester substrate",module 6+TE,0.283 s⁻¹
CCC(O)C(C)C(=O)SCCNC(=O)CCNC(=O)C(O)C(C)(C)COP(=O)(O)OP(=O)(O)OCC1OC(n2cnc3c(N)ncnc32)C(O)C1OP(=O)(O)O (stereo not drawn) [5a],CoA thioester compared with NAC thioester 2a as substrate,[5],approximately equivalent substrates
